Measurements as given in the supplement of paper PMC9876800.

System: peptide library, one residue held at a place counted from the S/T acceptor
Test: relative phosphorylation of the sub-library (ratio to the mean residue at this position); higher = residue favoured
Conditions: human
Method in brief: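 Relative sub-library phosphorylation is the ratio of each sub-library's signal to the mean residue at that position. The signal came from phosphorimaging of spots on streptavidin membranes, quantified by densitometry, after purified recombinant kinases reacted with biotinylated degenerate peptide sub-libraries in 384-well plates. Reactions held 50 μM peptide and 50 μM ATP spiked with γ-32P-ATP for 90 min under kinase-specific conditions.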

Sequence of RIPK2, construct: aa2-317 (O43353 2-317, looked up): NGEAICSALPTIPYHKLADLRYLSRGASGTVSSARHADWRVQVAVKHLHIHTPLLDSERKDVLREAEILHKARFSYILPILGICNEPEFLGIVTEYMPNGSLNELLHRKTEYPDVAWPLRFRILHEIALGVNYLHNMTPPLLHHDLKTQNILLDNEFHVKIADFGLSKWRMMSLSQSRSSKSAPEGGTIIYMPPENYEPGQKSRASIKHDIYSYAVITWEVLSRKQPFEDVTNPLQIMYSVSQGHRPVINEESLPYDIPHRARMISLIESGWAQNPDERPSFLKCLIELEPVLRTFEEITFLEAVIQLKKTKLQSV
Sequence of TAOK1, construct: aa1-356 (Q7L7X3 1-356, looked up): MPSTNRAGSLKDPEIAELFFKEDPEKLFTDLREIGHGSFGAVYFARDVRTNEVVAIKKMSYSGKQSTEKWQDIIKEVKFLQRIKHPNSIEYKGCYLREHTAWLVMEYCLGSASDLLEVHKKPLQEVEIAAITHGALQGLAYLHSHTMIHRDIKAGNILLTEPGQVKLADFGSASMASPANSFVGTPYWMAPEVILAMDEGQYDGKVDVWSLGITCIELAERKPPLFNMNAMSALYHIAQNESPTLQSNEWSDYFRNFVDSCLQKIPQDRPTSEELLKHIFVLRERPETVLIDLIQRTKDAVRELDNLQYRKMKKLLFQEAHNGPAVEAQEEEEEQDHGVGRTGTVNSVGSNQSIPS
Sequence of MAPKAPK2, construct: Full length (P49137 whole entry, looked up): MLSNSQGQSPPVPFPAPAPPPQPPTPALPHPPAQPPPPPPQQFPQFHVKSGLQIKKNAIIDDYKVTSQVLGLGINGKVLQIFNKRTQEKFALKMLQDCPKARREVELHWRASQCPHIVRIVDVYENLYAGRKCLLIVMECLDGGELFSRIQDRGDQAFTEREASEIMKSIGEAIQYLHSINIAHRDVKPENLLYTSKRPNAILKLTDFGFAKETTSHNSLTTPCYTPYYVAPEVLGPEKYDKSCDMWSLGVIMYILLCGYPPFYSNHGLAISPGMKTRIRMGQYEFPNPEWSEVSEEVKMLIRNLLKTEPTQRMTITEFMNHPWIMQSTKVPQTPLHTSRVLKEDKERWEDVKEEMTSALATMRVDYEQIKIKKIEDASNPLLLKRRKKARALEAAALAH
Sequence of PBK, construct: Full length (Q96KB5 whole entry, looked up): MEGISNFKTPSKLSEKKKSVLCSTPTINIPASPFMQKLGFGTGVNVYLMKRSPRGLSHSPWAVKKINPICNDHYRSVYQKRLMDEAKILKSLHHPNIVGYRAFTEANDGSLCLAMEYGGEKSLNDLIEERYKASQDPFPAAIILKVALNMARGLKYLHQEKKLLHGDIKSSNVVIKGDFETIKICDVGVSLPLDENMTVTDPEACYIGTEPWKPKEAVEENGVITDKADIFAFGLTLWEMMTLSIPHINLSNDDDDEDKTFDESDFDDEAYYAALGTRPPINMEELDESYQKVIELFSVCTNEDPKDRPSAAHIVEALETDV

MAPKAPK2, construct: Full length (from UniProt P49137)
relative phosphorylation
Conditions	at +1	at +2	at +3	at +4	at -1	at -2	at -3	at -4	at -5
A fixed	0.699	0.907	0.885	0.974	0.808	1.19	0.604	1.22	0.754
D fixed	0.716	1.92	2.48	1.79	1.12	0.349	0.262	0.669	0.268
E fixed	1.27	1.5	2.42	1.7	0.802	0.749	0.302	1.17	0.22
F fixed	0.729	0.59	0.436	0.561	0.69	0.568	0.212	0.659	1.39
G fixed	0.752	1.47	1.58	1.39	0.733	1.14	0.445	0.999	0.366
H fixed	1.52	1.18	1.1	1.01	1.38	0.778	1.08	1.07	0.67
I fixed	0.928	0.688	0.313	0.575	0.664	0.438	0.111	0.696	1.28
K fixed	0.861	0.655	0.784	0.987	1.2	0.693	1.91	1.75	0.51
L fixed	0.728	0.594	0.432	0.579	0.949	1.04	0.171	0.954	1.65
M fixed	1.27	0.616	0.43	0.598	0.994	1.67	0.275	1.23	1.14
N fixed	1.43	1.4	1.07	1.23	1.49	0.846	0.645	0.843	0.345
P fixed	0.206	1.48	1.75	1.84	1.69	0.655	0.889	0.805	1.42
Q fixed	1.47	1.04	1.17	1.07	1.31	3.73	1.03	1.33	0.941
R fixed	1.36	0.726	0.631	0.755	0.778	1.37	7.97	1.61	1.59
V fixed	1.14	0.885	0.501	0.739	0.87	0.615	0.154	0.725	1.1
W fixed	0.801	0.642	0.5	0.646	0.582	0.586	0.636	0.661	2.38
Y fixed	1.12	0.708	0.521	0.564	0.935	0.577	0.296	0.599	0.983
pThr fixed	1.61	1.04	1.11	1.83	0.519	0.372	0.258	0.504	0.365
pTyr fixed	5.15	2.06	1.63	1.61	1.04	0.397	0.218	0.557	0.646

RIPK2, construct: aa2-317 (from UniProt O43353)
relative phosphorylation
Conditions	at +1	at +2	at +3	at +4	at -1	at -2	at -3	at -4	at -5
A fixed	0.347	0.349	0.463	0.669	0.597	0.592	0.889	0.727	1.01
D fixed	0.267	0.348	0.308	0.731	1.09	0.599	0.412	0.738	0.674
E fixed	0.265	0.481	0.291	0.563	0.726	0.431	0.409	0.655	0.669
F fixed	2.32	1.73	3.03	1.2	1.31	1.12	1.17	1.15	1.44
G fixed	0.316	0.414	0.503	0.789	0.615	0.882	0.712	0.728	0.893
H fixed	0.643	1.41	0.734	1.11	1.29	1.54	0.905	1.02	0.985
I fixed	2.75	1.96	1.31	0.975	1.11	0.86	1.27	1.12	1.13
K fixed	0.367	1.29	0.628	1.18	0.766	0.734	0.983	0.739	0.874
L fixed	1.41	1.17	1.12	0.98	1.53	1.15	1.6	1.1	1.15
M fixed	1.4	1.12	1.41	0.967	1.74	1.18	1.2	1.23	1.17
N fixed	0.369	0.622	0.498	0.86	0.932	0.869	0.626	0.949	0.73
P fixed	0.166	0.299	0.277	0.879	0.394	0.365	0.537	0.624	0.781
Q fixed	0.496	0.788	0.425	0.847	0.784	0.82	0.631	0.679	0.727
R fixed	0.395	1.22	0.962	1.43	0.8	1.72	2.02	0.923	1.01
V fixed	1.58	1.14	0.845	0.638	0.75	0.64	0.797	1.02	0.917
W fixed	2.7	1.01	2.38	1.83	1.32	2.07	1.78	2.25	1.42
Y fixed	1.22	1.65	1.81	1.34	1.24	1.42	1.05	1.35	1.42
pThr fixed	0.578	0.83	0.416	0.82	0.77	0.688	0.707	1	0.808
pTyr fixed	0.309	0.39	0.353	0.5	1.35	0.425	0.568	0.617	0.54

PBK, construct: Full length (from UniProt Q96KB5)
relative phosphorylation
Conditions	at +1	at +2	at +3	at +4	at -1	at -2	at -3	at -4	at -5
A fixed	1.09	1.14	1.03	1.16	1.08	0.848	1	1.04	1.29
D fixed	0.572	0.524	0.634	0.644	0.384	0.427	0.364	0.545	0.576
E fixed	0.364	0.523	0.604	0.608	0.397	0.382	0.37	0.534	0.491
F fixed	0.394	0.849	0.728	0.848	0.814	1.47	1.57	1.07	0.756
G fixed	7.99	1.17	1.69	1.23	1.25	0.76	0.673	1.11	1
H fixed	0.527	1.11	1.2	0.777	1.48	1.06	0.965	1.16	1.41
I fixed	0.386	0.928	0.641	0.976	0.394	1.07	0.587	0.563	0.733
K fixed	0.475	0.775	1.25	1.2	1.37	1.7	1.49	1.23	1.38
L fixed	0.52	1.04	0.907	1.05	0.719	1.07	0.691	0.669	0.723
M fixed	0.93	1.29	0.717	0.98	1.06	1.09	0.845	0.826	0.833
N fixed	0.658	0.913	1.05	0.855	1.09	0.678	0.625	0.991	0.981
P fixed	0.592	1.38	1.69	1.56	1.06	0.878	0.872	1.16	0.914
Q fixed	0.53	0.802	0.954	0.845	1.55	0.685	0.707	0.856	0.77
R fixed	0.535	0.829	1.24	1.05	1.81	1.23	1.98	1.56	1.99
V fixed	0.476	1.37	0.956	0.983	0.517	0.932	0.709	0.642	0.777
W fixed	0.552	1.45	0.816	1.17	0.76	1.57	1.89	2.04	1.55
Y fixed	0.406	0.891	0.9	1.07	1.27	1.14	1.66	1.01	0.812
pThr fixed	0.348	0.618	0.721	0.507	0.317	0.586	0.638	0.803	0.703
pTyr fixed	0.287	0.497	0.574	0.529	0.537	0.508	0.554	0.703	0.576

TAOK1, construct: aa1-356 (from UniProt Q7L7X3)
relative phosphorylation
Conditions	at +1	at +2	at +3	at +4	at -1	at -2	at -3	at -4	at -5
A fixed	0.401	0.732	0.799	0.651	0.775	1.05	0.861	0.969	0.986
D fixed	0.16	0.494	0.336	0.409	0.645	0.589	0.515	0.911	0.93
E fixed	0.122	0.282	0.296	0.421	0.345	0.42	0.59	0.969	0.816
F fixed	1.53	0.505	0.853	0.835	1.07	1.74	0.817	0.95	0.933
G fixed	0.352	0.705	1.06	0.773	1.47	1.42	1.73	1.29	1.18
H fixed	0.855	1.11	0.901	1.17	1.52	0.583	0.99	1.04	1.08
I fixed	1.83	0.612	0.692	0.786	0.381	0.577	0.533	0.696	0.757
K fixed	0.504	2.83	2.32	1.79	1.15	1.02	2.24	1.29	1.36
L fixed	1.85	0.54	0.809	0.727	1.08	0.629	0.554	0.728	0.773
M fixed	2.05	0.721	0.686	0.861	1.45	0.92	0.661	0.873	0.88
N fixed	0.398	1.46	0.87	0.805	1.31	0.9	0.875	0.999	0.982
P fixed	0.319	0.777	1.13	0.711	0.47	0.858	0.988	1.01	1.02
Q fixed	0.461	0.837	0.762	0.759	0.746	0.742	0.879	0.937	0.844
R fixed	0.559	3.26	2.89	2.44	1.44	1.08	1.81	1.39	1.24
V fixed	1.21	0.723	0.602	0.635	0.419	0.658	0.505	0.765	0.821
W fixed	2.88	0.622	1.08	1.76	0.996	1.13	1.06	1.05	1.21
Y fixed	1.52	0.794	0.916	1.46	1.73	2.68	1.39	1.13	1.18
pThr fixed	0.365	0.32	0.327	0.386	0.306	0.469	0.667	0.78	0.881
pTyr fixed	0.295	0.337	0.45	0.432	1.56	0.733	0.622	0.777	0.963
